From US10280205B2, “Method for treating cancer with an activated T lymphocyte that selectively recognizes a cancer cell consisting of specific peptide” (immatics biotechnologies GmbH, priority 2015, dated 2019)

What follows are substances tested against HLA-A*02:01 (Homo sapiens, UniProt P04439, D140Y/D185E/D98H/E176V/E277Q/G131W/G231S/I119V/I121R/I166T/I218V/L300P/L318F/N151K/N90K/P208A/P217A/Q86G/Q94H/R138H/R169H/T345S) (assay: MHC binding assay: UV-ligand exchange with beta2m ELISA (exchange yield)). Details: binding to HLA-A*02:01, β2m ELISA.
From the text: Candidate peptides for T cell based therapies according to the present invention were further tested for their MHC binding capacity (affinity). The individual peptide-MHC complexes were produced by UV-ligand exchange, where a UV-sensitive peptide is cleaved upon UV-irradiation, and exchanged with the peptide of interest as analyzed. Only peptide candidates that can effectively bind and stabilize the peptide-receptive MHC molecules prevent dissociation of the MHC complexes. To determine the yield of the exchange reaction, an ELISA was performed based on the detection of the light chain (β2m) of stabilized MHC complexes. The assay was performed as generally described in Rodenko et al. (Rodenko et al., 2006).
96 well MAXISorp plates (NUNC) were coated over night with 2 ug/ml streptavidin in PBS at room temperature, washed 4× and blocked for 1 h at 37° C. in 2% BSA containing blocking buffer. […] Peptide-MHC monomers of the UV-exchange reaction were diluted 100 fold in blocking buffer. Samples were incubated for 1h at 37° C., washed four times, incubated with 2 ug/ml HRP conjugated anti-β2m for 1h at 37° C., washed again and detected with TMB solution that is stopped with […]. Absorption was measured at 450 nm. Candidate peptides that show a high exchange yield (preferably higher than 50%, most preferred higher than 75%) are generally preferred for a generation and production of antibodies or fragments thereof, and/or T cell receptors or fragments thereof, as they show sufficient avidity to the MHC molecules and prevent dissociation of the MHC complexes.

| Peptide exchange (MHC class I binding score, peptide exchange yield) | Substance |
| --- | --- |
| “+++” (≥50 = +++) | 609 (ALWKQLLEL; listed as Homo sapiens) [compound 609] |
| “+++” (≥50 = +++) | 573 (ILVANAIVGV; listed as Homo sapiens) [compound 573] |
| “+++” (≥50 = +++) | 342 (HIYDKVMTV; listed as Homo sapiens) [compound 342] |
| “+++” (≥50 = +++) | 539 (ALFDAQAQV; listed as Homo sapiens) [compound 539] |
| “++” (≥20% = ++) | 377 (FLLDSSASV; listed as Homo sapiens) [compound 377] |
| “+++” (≥50 = +++) | 592 (RLLSAAENFL; listed as Homo sapiens) [compound 592] |
| “++” (≥20% = ++) | 355 (SIQQSIERLLV; listed as Homo sapiens) [compound 355] |
| “+++” (≥50 = +++) | 619 (ALQDRVPLA; listed as Homo sapiens) [compound 619] |
| “+++” (≥50 = +++) | 541 (SMLEPVPEL; listed as Homo sapiens) [compound 541] |
| “+++” (≥50 = +++) | 562 (YLEELPEKLKL; listed as Homo sapiens) [compound 562] |
| “++++” (≥75% = ++++) | 347 (SLFKHDPAAWEA; listed as Homo sapiens) [compound 347] |
| “++” (≥20% = ++) | 526 (RLAEVGQYEQV; listed as Homo sapiens) [compound 526] |
| “+++” (≥50 = +++) | 450 (FMIDASVHPTL; listed as Homo sapiens) [compound 450] |
| “+++” (≥50 = +++) | 563 (WLLPYNGVTV; listed as Homo sapiens) [compound 563] |
| “+++” (≥50 = +++) | 484 (SLIEKVTQL; listed as Homo sapiens) [compound 484] |
| “+++” (≥50 = +++) | 617 (ALMYESEKVGV; listed as Homo sapiens) [compound 617] |
| “+++” (≥50 = +++) | 515 (LLQELVLFL; listed as Homo sapiens) [compound 515] |
| “++++” (≥75% = ++++) | 329 (FLVTLNNVEV; listed as Homo sapiens) [compound 329] |
| “++++” (≥75% = ++++) | 395 (ALALGGIAVV; listed as Homo sapiens) [compound 395] |
| “++” (≥20% = ++) | 375 (SLTETIEGV; listed as Homo sapiens) [compound 375] |
| “+++” (≥50 = +++) | 492 (SLFDGFADGLGV; listed as Homo sapiens) [compound 492] |
| “++” (≥20% = ++) | 590 (SLIEKLWQT; listed as Homo sapiens) [compound 590] |
| “+++” (≥50 = +++) | 331 (KVDTVWVNV; listed as Homo sapiens) [compound 331] |
| “+++” (≥50 = +++) | 496 (FLVEKQPPQV; listed as Homo sapiens) [compound 496] |
| “+++” (≥50 = +++) | 335 (YSLSSVVTV; listed as Homo sapiens) [compound 335] |

More lines, now with the values behind:

| Substance | Peptide exchange (MHC class I binding score, peptide exchange yield) |
| --- | --- |
| 228 (AMQEYIAVV; listed as Homo sapiens) [compound 228] | “++” (≥20% = ++) |
| 264 (SLQEQLHSV; listed as Homo sapiens) [compound 264] | “+++” (≥50 = +++) |
| 249 (LLDGFLVNV; listed as Homo sapiens) [compound 249] | “+++” (≥50 = +++) |
| 85 (KMSELRVTL; listed as Homo sapiens) [compound 85] | “+++” (≥50 = +++) |
| 207 (GLTSTNAEV; listed as Homo sapiens) [compound 207] | “++” (≥20% = ++) |
| 7 (SLVGLLLYL; listed as Homo sapiens) [compound 7] | “++++” (≥75% = ++++) |
| 144 (YIMEPSIFNTL; listed as Homo sapiens) [compound 144] | “+++” (≥50 = +++) |
| 262 (LLWGDLIWL; listed as Homo sapiens) [compound 262] | “+++” (≥50 = +++) |
| 325 (FIMPATVADATAV; listed as Homo sapiens) [compound 325] | “+++” (≥50 = +++) |
| 296 (FMEGAIIYV; listed as Homo sapiens) [compound 296] | “+++” (≥50 = +++) |
| 127 (KIGDEPPKV; listed as Homo sapiens) [compound 127] | “++” (≥20% = ++) |
| 26 (ALLELAEEL; listed as Homo sapiens) [compound 26] | “+++” (≥50 = +++) |
| 241 (SLVEVNPAYSV; listed as Homo sapiens) [compound 241] | “+++” (≥50 = +++) |
| 147 (SLLEAVSFL; listed as Homo sapiens) [compound 147] | “+++” (≥50 = +++) |
| 21 (VLDELDMEL; listed as Homo sapiens) [compound 21] | “++” (≥20% = ++) |
| 12 (SLWPDPMEV; listed as Homo sapiens) [compound 12] | “+++” (≥50 = +++) |
| 82 (FLSSVTYNL; listed as Homo sapiens) [compound 82] | “+++” (≥50 = +++) |
| 265 (LLFGGTKTV; listed as Homo sapiens) [compound 265] | “++” (≥20% = ++) |
| 59 (IMEDIILTL; listed as Homo sapiens) [compound 59] | “+++” (≥50 = +++) |
| 78 (SLFSSLEPQIQPV; listed as Homo sapiens) [compound 78] | “+++” (≥50 = +++) |
| 313 (VLFDDELLMV; listed as Homo sapiens) [compound 313] | “+++” (≥50 = +++) |
| 91 (IMQDFPAEIFL; listed as Homo sapiens) [compound 91] | “++++” (≥75% = ++++) |
| 301 (FLVEDLVDSL; listed as Homo sapiens) [compound 301] | “+++” (≥50 = +++) |
| 202 (ALLDQQGSRWTL; listed as Homo sapiens) [compound 202] | “+++” (≥50 = +++) |
| 52 (FLLAHGLGFLL; listed as Homo sapiens) [compound 52] | “++++” (≥75% = ++++) |
